We go through 47 sequences from the NTF2 design screens of Basanta et al. (2020).

The data set is described as follows: protease stability score; higher = more stable; yeast display proteolysis, trypsin and chymotrypsin.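 Also: relative to predicted unfolded state with 0 unfolded-like and 1 meaning tenfold more protease.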
In turn, “SHVEEEAEHFWEELVRAYKTGDENLLKRLADPNVKVDINGRELIGREEFARVVSEERRQMRSHVELHDIRKDGDKMHINTILRIHIGDKEVSRTTHLHSIKVDGRWRLETWHIV” gave a protease stability score of 1.06.
With “SHVEEESREAIERFEHLLRTGNEEELENLADPNVLLRVNGKEIWGRERAIKHIIHEMTRVKNMKLTSESFEISENHIHFKFTLTINGKIIHLEIVTKKVDGRWVIKHVEFH” the figure was 1.32; with “SHVEELSHEVTRWVDIALQTGDERVIDEYLDPNARIDVGDKHFIGREEMSEFYSEFSRRVKNLKLSRYHKKDERIIGNKVILHGKLNVNINGRSHEIDTEIVSMKVNGRWLVEKEIVN”, 0.302.
The value for “SHVEQESREIFEQIVRNLKTGDEDLLTELLDPNTLHIVNGVEIHGMEIVAKFLLDWRRKVKNIRIHDEEERHIEIYGDKVISHVDMDGIVNGRRVRRENIWIAEKVDGRWVIREVEVR” was 1.94; that for “SHVKEIIRHFFDELVRRRETGDEEVLKELADPHTRLRVGEKEIHGWDEILTRFITWLEIHGAEYTDHRIHDIRVVGEKVHVESEIDIDYNGKHVEHHFEIVVEKINGRWRMKSIFVS” was 1.27.
“SHWDQRLEELSKLVVDHLNTGDFEEIKRLVDPHMRLEIGDKTRIGREQIHEWLEEFLRRYKNARVEIRIEHHELYGEKFFADTRLNLHVGDKHHHFDTRLEIHVIDGKIHSMSMRIH” showed a protease stability score of 1.1.
With “SHWEEDARRFNEIFITHFMTGDWHHLERMLDPHTRAHINGVNTVGREEVSRLVTELFEELGAKHHRIHDFRIQGDKVDTHHHLDVNGRNNHFIIHVKKINGKWRVESIEMTVI” the figure was 1.22; with “SKDDEIIHTLIRFIVHILQTGNEEESHRMADPNAKSNINGVEVHGREEFVDLWVEWMERLGHDRVHSRLRHVNIQGDKAIMHIELDVNGKEFNLIVFIRKVNGRWYLEEMTID”, 2.11; with “SKDEDDMRRWAEILIQDFITGDEDRMNHLLDPNTRVQVNGVQDHGMEALEKLFEILGFKHIDIKDLHIKLIGDKVEQDVVLRLNVNGKERKVKVHNFAEKVDGRWFVESITVHVR”, 1.02.
The value for “SKDEEDAEEFFEKWLRYSRTGDEKSMEELMDPNTKIDFNGKEIHGREEVLRFLIELRVHHIEIKRISSINGKLHIDGRFDIIYGDKRIDTRTVLEIDKINGRWHLHTVRFV” was 2.12; that for “SKDEKTLSHFIKFLEDVEKTGNFEDFYELMDPDAKLVVNGVEHHGRDEFTRFIKEFMDRVDHIHYTDVHHIILQGDKVIIDAKVRGVWDGVERELRVKIIIVKINGRWYLKSFEEE” was 1.87.
The value for “SKEDEDFNERTREWLEILETGDWRKLARLLDPNVLNIVGDKEHHGREEVIKSFRTYLEKVPNMRFTTRRIRLQGDKVDLDGDLYFNGKEIKVRIFLVIYDGRVHSMEVREE” was 1.09; that for “SKEDRDAKWAFEHLMHLLHTGDEEKINENLDPNARNEFDGRELHGREIITEILRNLGIKHLHIHSVEFISQGDKLFSNVDGNNIFDGREVHTHLHFIIEKFNGKWNIKSIHIKIT” was 1.19.
Turning to “SKEEDMMRKIVEDFSRAQWTGDEKKVDELLDPNTRSDINGVHIVGMEEYLRVMKHRGVEFKHSEIKDVNLQGDKATWDGIDHVNFNGKDIELQVHIYLRKINGRWSIHTLKVQ”, the protease stability score turned out to be 0.386.
“SKEEEDARFMMHLWEHVLRTGDEDVLHKLADPDVKIIIGDKEHVGREELIDIFRERLKEWRIHDFHIRRVHVINGKVHVDGETDGTINGRRIIFRIEIHLVIVDGRIKEVEEDME” registered a protease stability score of 1.87.
With “SKEEEDTERITRLILEYLLTGDEDVFNHLADPNVRLVIDGRLVHGRERASRIMVESYEKFGADHREVRMHSVRDVDGRIHSDIKVHVHIGDKRQNLSHEVYSTKYDGRWIIKSVILT” the figure was 0.245.
With “SKEEEHAYRVMEIILKQHLTGDEEEISRLLDPHVKMDVDGVILHGRENASRWLFEWIRFFKGLRLHIHIEDIQVQGEKSHHHTRLHITINGRTQNYRFKVHAVVVNGQIKHFELDWD” the figure was 1.39; with “SKEEHDAKYIAMLVVENLLTGDWERLFRYLDPHARMEFKVGDKHIETHGWKEIKETLDELITEWRTDDMKVRDIKVYGDKVDVEGEMRGDINGRIRTIEVRIEVIVVNGRLKDISFEVK”, 1.95.
The value for “SKEEHETHRMIEHILKIVKTGDEENIHKNLDPHVRVNVNGRNLHGREEFVRVMYQWWHEAGVDHVHLTDFEIQGDKAHIHIDEHFNGKRHHIEIIAQKVNGKWLMREVIID” was 1.39.
“SKEEKDYWEFAEIWISDLLTGDEDLRKHLHDPDVRYHYHQGDKTFETHGMEEVLKLDKDLWRRLGVKHLEIHRVEVQGDKIHLDARLQVGDKSTEVHILLIVVNGKVKHIHIFVH” gave a protease stability score of 1.2.
The value for “SKEEKETEKAMEESLHIFETGDWKAFHDNVDPNVRLHIGDKDSHGRERATELYLTVVHHLGINHIQIDSFQINIQGDKVVINIDGTSHVGDKWSRIRVHIVERKIDGRWLISSFKMHIE” was 1.07; that for “SKEETWVKEAYELMTRTIRTGDERLMHELLDPHVRTVINGQESHGREVVLRFLEHIRYEEVTPTHIRIIGDWIDVDIRIHGHFDGRRYELRSTLFMRKVDGKWDLTEIRII” was 0.709.
With “SKHKEQTEHVMKTWEHAMRTGDEDRVSHLLDPNVRFEVGNKEFHGREEMSRHIVEMRFTELRLRDVETQGDKVHFEGEMRGIIDGKEETNKLIVIIYKVNGRWHIRSVHVE” the figure was 0.618; with “SKISEFVKMLLEIEVHAHETGDWRHYQEMMDPHVKFELNIGNFHTLDHGRDRLIDWIEHHIKRADHLHVHIREVHVIGDKVSVRGELKTNVNGVDLEYEILQIIIVVDGRFKSIQHSYL”, 0.155; with “SKLEEDAHKMLDKILHNIRTGDEESEHRLADPEVKFHIGDKTFHGMSLVSKLLLHLRIRTERIENVNIRVINGVAEVEMRGVRDGEFNGVRVQVTVEEHFIIDKINGRWIIREIHVHII”, 1.29.
With “SKLEEDTRRAVEHFLKNIHTGDEHELTKMLDPNVRLDFDGREYHGREEVVHYLFRIMHEFGADHSEVKHWHVQGDFMQVDTRLHVGDKFFETELYMHKINGRWYVKHIIIR” the figure was 2.13; with “SKREDKWKHHVEVLIRLWQTGDEDTLKELFDPNVLLLVIYNGRNIHNHGRELAMHWLRYLLEHLGIDHYHIESSSVIGDKVEIKSRVYIGDKTYELDLEIRIIDGRLKSLNVNIE”, 0.8; with “SLEEHAFRLALHLLENMWLTGDEELFERLLDPHARLEFENHKYHGRDIVSEFMRRIKNLTFHRIIFRNRDVQGEKVSFIMETDVEWNGKRHIEHTHITVHKINGVWLIHEVDIR”, 1.42.
In turn, “SMEEMSELYIKWWMTGDWDKLTNNADPHTRVNVGNFESVGMEHLIELMLRHVKHFGINHSILRSHDTQGDKVHVDGELHVNGRTARIVLHLEIVNGRIKSESVESRSEVFEEHLHKVLR” returned a protease stability score of 0.635.
Sequence “SNEDEIAQHLVRLILNAHLTGDEKLLETLADPTMRFTLRIGDKQHERHGREEWIKWVRHTIERIDHIEIRIDDRRIQGDKIEIDGTLRLEIGDKVNQVRVDIIIHLVNGRLKEVIIEVV” came in with a protease stability score of 2.06.
The value for “SNEQKEFELLLRLMKEIIETGDEENFHRMVDPHARLQVGDKHHHGREEMSRWFEEFTKRFKNAKVHIDHVDSVDGQLHIDTTLIFDGVERRVEIIVRKVDGKWILEEVRII” was 1.08; that for “SQDERDVKKFVDLYERTVETGNEEDMERLMDPHVRMEVGDKHEHGRHIVIRVLHELGADHVDIHHVNVQGEKIHIHGRLHVDGRIHHVEIHAKKVNGKWIMKLVIIR” was 1.11.
The value for “SQDKETSDEAFRIWVESYETGNEHLEEHMVDPNARSRVGDKELIGMEHFIKIMEKIKNATLEIRHRSYTEIDGRLRWHTQLYIEYGDKRIEREIIIIVHKVNGRWSIEHFEVR” was 0.973.
With “SQEEEIVLHISQRLLRALSTGNEKEFEELLDPNARVSEIQGDKSYSHHGREEFLIFMREWFEKMGIKHFHIEHIDVQGNWVRVRGRITFNGREHDVNILILVIDGRVRSFTIEIK” the figure was 1.57; with “SQEEKEIRDWLHILANARLTGDEDWLLKQADPNTRLEFNGVDLVGMEHNIKFLLHLERQHGMRLHNIHIHHVEVQGDKVESDIREDGEVNGRRMIFTSIIIVRKVNGRWILRSFHLH”, 1.21; with “SQEEQDTEEFLRHLHEALRTGDEKTLRTLIDPHVRLFINGVHLHGREELVRWLKEFVDRLGIDVSTLHIDDMRIIGNFIELDTKIRWKIGDKTEEVETRFIIVKIDGRWYVRQVEMG”, 2.6.
Turning to “SQEERELHRALKELFDRFITGDWDKLQKLLDPEVRLNINGQEIHGREEVWKRKIEEFEKFGIDHIKFHLEHERRQGDKIELDGRLEIRVGDKRLEHEVRIVFLKIDGKWILRSEEIN”, the protease stability score is 1.47.
“SQEERTHRELLRLLLESLTTGDEDTLRHLMDPHMIIRIGDKHFHGWDWIVHLFRKLGADHMEVEIRDEDIIDGRIRHHGSLHIHVDGRTEHIETILFVEKVNGRWVIRSVEFR” had a protease stability score of 1.64.
Take “SQIEEDIRRQLKRFNDALTTGDEDEIMNLFDPDVRWIQGNYEHHGREFYLEMFREWRTHSIRIDIDRMEIQGDKVTLHTRFTVDGEFNGRRITEQYELVFIARKIDGRWVFREVRIK”: the protease stability score was 2.4.
Consider “SQLEVASTEALELLRFSLETGDWEFLLRLADPNTRIEINGVTFHGREDMEEIMEEKFRRFKNVKVELDVKEVHFQGDKVRIRVVEFWKVDGQEIFIDSRIVMIKVNGRWVYKELRVH”, for which the protease stability score was determined as 0.7.
The sequence “SRAEEEARHLLHLLIHSLNTGDEDTSRKMLDPHVRLIIDGREHHGREDLLWFLRFLGFDHVHHVELHDLHDVNGRIKVDVKFHMFVGDKLIKTTVIYFILKINGRWVFESIKVE” registered a protease stability score of 1.23.
As to “SREDELREEFLRRILEVLRTGDFDEWKKYLDPDTRNDINGVDWVGRETAAHELERMYRHIRIKDTKVHDVRVQGDKVHIDVRVLIEFDGRERILETHIVVEKVDGRWHLKHVRFN”, the protease stability score stood at 1.62.
Take “SREEEDAKLALDLLIEALKTGDEHEIKELLDPTTRMEVGDKELVGRENISKHVSDMVHRIDHIEVRLHDMTIINGVVHLDTRLILHFNGRTHTQETRVIVWKFNGRWIITHIHVK”: the protease stability score stood at 1.28.
In the case of “SREEEEATHAVNRWMQLFITGDEESLRELADPDDRINIDGKDFHGREEFEMFMRLFVERFKNLRVELEDTRITVQGDKITVRFKIHFNINGVQTKTEVIIFSTKVNGRWHFKSEEVRHR”, the protease stability score stood at 0.415.
The value for “SREEEIAHDVFREWIESFRTGDEDHRTEMMDPNARVFVNGVEFVGRDEIVRFFRHLRFDNSRHEIKSVRVVDGVAHIDSHLELHGTVNGQRDRVSYKLNVHTSKIDGKWVITEVKVK” was 2.03; that for “SREEEIMRRFLELLILAFRTGDEDTYLKMLDPRVRLEINGRDLHGRETVREHYKDERDELGVSQFHIWVRDLRVQGDKIETEGHLEFDGRWLDIHFHAHFVDGRLKSFRIEIR” was 1.32.
With “SREEELAKKLLEIYSRSVETGDWKKLFELMDPNTRVEQGEWHFHGREEFHKLVHKFLERADVVHVEIDRIKVIGDFVHIDVVLHIHQGEFHHVVRTRLDYLKFNGRWVLQTIRIE” the figure was 1.6.
